Data as given in patent publication US20210403565A1 (BIOATLA, published 2021).

Columns and labels:
[1] = target: T1, human CTLA4 expressed on the cell surface of CHO cells (human, UniProt P16410 36-223); assay: FACS saturation, CHO-huCTLA-4, pH 7.4, MFI, titration up to about log 6.5; no unit in the table, unit from the axis Log Antibodies [ng/ml]
T1 construct: whole, on cells; also called CHO-huCTLA4; huCTLA4
T1 sequence (looked up): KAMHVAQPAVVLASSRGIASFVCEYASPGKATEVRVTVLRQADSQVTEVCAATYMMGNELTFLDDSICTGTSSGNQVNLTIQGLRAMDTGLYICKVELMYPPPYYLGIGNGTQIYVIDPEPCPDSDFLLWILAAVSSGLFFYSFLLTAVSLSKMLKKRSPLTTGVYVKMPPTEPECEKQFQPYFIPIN
Description: (§1) The amount of antibodies bound on the cells was quantified using anti-human IgG antibody conjugated to fluorophores. EC₅₀ values at pH 6.0 and 7.4 for binding to cells were calculated using the nonlinear fit (variable slope, four parameters) model built into GraphPad Prism software (version 7.03). The expression levels of human CTLA4 or cynomolgus CTLA4 on the surface of the CHO cells were determined using a BD QuantiBRITE™ PE kit.
(§2) Finally, saturations of the antibodies on the CHO cells expressing human or cynomolgus CTLA4 at pH 7.4 were also measured by FACS (FIGS. 8A-8B).

[2] = target: T1, human CTLA4 expressed on the cell …; assay: FACS, cells expressing human CTLA4, assay pH 6.0, MFI; lot 6972 in Tris buffer, T2W; unit from the axis Log[ng/mL]
Description: (§3) The amount of bound antibodies was quantified using anti-human IgG antibody conjugated to fluorophores. The MFI in each reaction was proportional to the amount of antibodies bound. The EC₅₀ value (in ng/mL) for binding to human CTLA4 on cells was determined by MFI of the singlets population against antibody concentration with a Prism variable slope of four-parameter dose-response curve, which was calculated using the nonlinear fit (variable slope, four parameters) model built into GraphPad Prism software (version 7.03).

[3] = target: T1, human CTLA4 expressed on the cell …; assay: FACS, cells expressing human CTLA4, assay pH 6.0, MFI; lot 6972 in Glu buffer, T2W; unit from the axis Log[ng/mL]
Description: as §3

[4] = target: T1, human CTLA4 expressed on the cell …; assay: FACS, cells expressing human CTLA4, assay pH 7.4, MFI; lot 6972 in Tris buffer, T0; unit from the axis Log[ng/mL]
Description: as §3

[5] = target: T1, human CTLA4 expressed on the cell …; assay: FACS, CHO cells expressing human CTLA4 (CHO-huCTLA-4), pH 7.4, MFI; no unit in the table, unit from the axis Log Antibodies [ng/ml]
Description: as §1
(§4) At least two independent duplicate FACS experiments were performed for each antibody using each of the cell lines. The binding activities at different concentrations of the antibodies are plotted in these figures.

[6] = target: T2, recombinant human CTLA4 extracellular domain (human, UniProt P16410 36-161); assay: ELISA, immobilised huCTLA-4, table head pH 7.0 (text: pH 7.4), Jun. 27, 2017
T2 construct: extracellular domain; also called huCTLA-4
T2 sequence (looked up): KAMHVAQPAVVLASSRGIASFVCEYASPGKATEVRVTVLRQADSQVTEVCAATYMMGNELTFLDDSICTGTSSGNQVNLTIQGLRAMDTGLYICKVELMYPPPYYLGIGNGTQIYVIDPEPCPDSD

[7] = target: T1, human CTLA4 expressed on the cell …; assay: FACS, cells expressing human CTLA4, assay pH 7.4, MFI; lot 6972 in Glu buffer, T0; unit from the axis Log[ng/mL]
Description: as §3

[8] = target: T3, cynomolgus CTLA4 expressed on the cell surface of CHO cells (cynomolgus, UniProt G7PL88 36-223); assay: FACS, CHO cells expressing cynomolgus CTLA4 (CHO-cynoCTLA-4), pH 7.4, MFI; curve near baseline up to log 4, about 150000 at log 5, no plateau; no unit in the table, unit from the axis Log Antibodies [ng/ml]
T3 construct: whole, on cells; also called CHO-cynoCTLA4
T3 sequence: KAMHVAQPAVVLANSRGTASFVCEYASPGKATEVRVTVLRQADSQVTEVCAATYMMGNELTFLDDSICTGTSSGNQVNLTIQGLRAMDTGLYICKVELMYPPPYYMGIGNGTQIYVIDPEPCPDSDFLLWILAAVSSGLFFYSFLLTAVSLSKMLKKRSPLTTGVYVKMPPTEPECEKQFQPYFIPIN
Description: as §1, §4

[9] = target: T1, human CTLA4 expressed on the cell …; assay: FACS saturation, CHO-huCTLA-4, pH 7.4, MFI, titration up to about log 6.5, curve still rising at the end; no unit in the table, unit from the axis Log Antibodies [ng/ml]
Description: as §1, §2

[10] = target: T2, recombinant human CTLA4 extracellular …; assay: ELISA, wells coated with human CTLA4, assay pH 7.4; lot 6978 without test buffer; curve still rising at log 3 (OD450 about 0.2), no plateau; same column repeated in FIG. 9E and FIG. 9F; unit from the axis Log[ng/mL]
Description: Both ELISA and FACS analysis were used to measure the binding activity. […] The amount of bound antibodies was quantified using anti-human IgG antibody conjugated to HRP. The absorbance at 450 nm in each measurement was proportional to the amount of antibodies bound. […] EC50 value (in ng/mL) for binding to human CTLA4 was determined by absorbance at 450 nm against antibody concentration with Prism variable slope of four-parameter dose-response curve, which was calculated using the nonlinear fit (variable slope, four parameters) model built into GraphPad Prism software (version 7.03). The buffers tested included His buffer (His), Tris buffer (Tris), Glutamine buffer (Glu) and no buffer.

[11] = target: T1, human CTLA4 expressed on the cell …; assay: FACS, cells expressing human CTLA4, assay pH 6.0, MFI; lot 6978 control without test buffer; same column repeated in FIG. 10E and FIG. 10F; unit from the axis Log[ng/mL]
Description: as §3

B1: BA-087-05-19 (antibody, V domains shown)
VH: EVQLVESGGGLVQPGGSLRLSCAASGFTFSHYTMHWVRQAPGKGLEWVSFISYDGNNKYYADSVKGRFTISRDNSKNTLYLQMNSLRAEDTAVYYCARTGWLGPFDYWGQGTLVTVSS
VL: AIQLTQSPSSLSASVGDRVTITCRASQYVGSSYLAWYLQKPGQSPQLLIYGAFSRATGIPARFSGSGSGTEFTLTISSLQSEDFAVYYCQQDGSSPWTFGQGTKVEIK
notes: Detected with anti-human IgG and a molecular weight of 146 kDa was used in SPR, so it was tested as a whole IgG; also called BA-087-05-019; BA-087-05-19 (# 6972)
B1 showed an EC50 [1] of 0.846 µg/mL, an EC50 [2] of 0.352 µg/mL and an EC50 [3] of 0.267 µg/mL. For the same binder, the EC50 [4] was 0.681 µg/mL, the EC50 [5] was 0.438 µg/mL and the EC50 [6] was 0.0358 µg/mL. The EC50 [7] was 0.462 µg/mL.

B2: BA-087-08-32 (antibody, V domains shown)
VH: EVQLVQSGAEVKKPGATVKISCKVSGFTFSHYTMHWIRQSPSRGLEWLGFISYDGNYKYYADSVKGRFTISRDNAKNSLYLQMNSLRAEDTAVYYCARTGWLGPFDYWGQGTLVTVSS
VL: EIVMTQSPATLSVSPGERATLSCRASQSVGSSYLAWYQQKPGKAPKLLIYGAFSRATGVPSRFSGSGSGTDFTLTISSLQPEDFATYYCQQDGSSPWTFGQGTKVEIK
notes: Detected with anti-human IgG and a molecular weight of 146 kDa was used in SPR, so it was tested as a whole IgG; also called BA-087-08-032; BA-087-08-32 (# 6978)
B2 was tested, and the EC50 [8] was 83.9 µg/mL, the EC50 [9] was 69.6 µg/mL and the EC50 [10] was 1.14 µg/mL. It also gave an EC50 [11] of 0.158 µg/mL.
